From patent US20140378536A1 (VALTED, published 2014)

Biological target: T1, FLAG-tagged PARIS (full-length PARIS, ZNF746, in pCMV-Tag2A) (human, UniProt Q6NUN9 1-644)
T1 construct: Expressed in SH-SY5Y cells from cDNA IMAGE:30347892; The construct limits it prints (1-644, 322-644) match the 644-residue human entry; also called FLAG-PARIS; pCMV-FLAG-PARIS; not shown: N-terminal FLAG tag of vector pCMV-Tag2A
Test: co-immunoprecipitation, IP of FLAG-PARIS (FIG. 20)
Experimental: For co-immunoprecipitation from cell cultures, SH-SY5Y cells were transfected with 2 μg of each plasmid, unless otherwise indicated.

T1 sequence (Q6NUN9 whole entry): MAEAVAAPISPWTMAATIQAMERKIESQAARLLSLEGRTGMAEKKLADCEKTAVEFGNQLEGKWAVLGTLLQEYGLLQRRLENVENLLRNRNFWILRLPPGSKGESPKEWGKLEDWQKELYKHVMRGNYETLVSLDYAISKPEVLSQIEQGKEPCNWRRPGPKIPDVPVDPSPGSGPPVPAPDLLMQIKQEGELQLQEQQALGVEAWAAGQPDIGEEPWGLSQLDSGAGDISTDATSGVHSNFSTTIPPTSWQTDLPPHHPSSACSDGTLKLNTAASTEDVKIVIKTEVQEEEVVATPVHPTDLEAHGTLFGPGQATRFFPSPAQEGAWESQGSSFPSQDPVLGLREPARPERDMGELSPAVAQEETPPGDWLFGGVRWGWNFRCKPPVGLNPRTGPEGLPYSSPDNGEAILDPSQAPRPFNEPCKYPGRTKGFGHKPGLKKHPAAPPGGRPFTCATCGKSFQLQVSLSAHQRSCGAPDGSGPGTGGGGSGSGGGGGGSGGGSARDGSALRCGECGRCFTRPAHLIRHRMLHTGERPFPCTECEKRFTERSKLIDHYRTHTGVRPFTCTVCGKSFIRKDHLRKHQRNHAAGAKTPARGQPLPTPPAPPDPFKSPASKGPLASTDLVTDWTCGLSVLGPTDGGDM

binding result: no binding
B1: HA-tagged parkin truncation, amino acids 1-198 (UBL-SH) (other, UniProt O60260 1-198, looked up)
chain: MIVFVRFNSSHGFPVEVDSDTSIFQLKEVVAKRQGVPADQLRVIFAGKELRNDWTVQNCDLDQQSIVHIVQRPWRKGQEMNATGGDDPRNAAGGCEREPQSLTRVDLSSSVLPGDSVGLAVILHTDSRKDSPPAGSPAGRSIYNSFYVYCKGPCQRVQPGKLRVQCSTCRQATLTLTQGPSCWDDVLIPNRMSGECQS
notes: range 1-198; also called N-terminal UBL-SH domain; not shown: HA tag of vector pRK5-HA
